In the Human Domainome abundance scans (Beltran et al. 2025):
± gives the uncertainty stated by the source.

B1: Serine/threonine-protein kinase A-Raf, residues 21 to 89; numbered along this chain, P10398 (parent)
chain: VKVYLPNKQRTVVTVRDGMSVYDSLDKALKVRGLNQDCCVVYRLIKGRKTVTAWDTAIAPLDGEELIVE

Variants of: B1
Test: abundance fitness (aPCA) (normalised: wild type 0, dead -1); higher = more abundant; growth selection in yeast, the domain comes from the species named
Details: Homo sapiens

Variant | abundance fitness
VKVYLPNKQRTVVTVRDGMSVYDSLDKALKVRGLNQDCCVVYRLIKGRKTVTAWDTAIKPLDGEELIVE | -0.076 ± 0.067
VKVYLPNKQRTVVTVRDGMSVYDSLDKALKVRGLNQDCCVVYRLIKGRKTVTAWDTAICPLDGEELIVE | -0.188 ± 0.11
VKVYLPNKQRTVVTVRDGMSVYDSLDKALKVRGLNQDCCVVYRLIKGRKTVTAWDTAIPPLDGEELIVE | -0.646 ± 0.12
VKVYLPNKQRTVVTVRDGMSVYDSLDKALKVRGLNQDCCVVYRLIKGRKTVTAWDTAIWPLDGEELIVE | -0.14 ± 0.065
VKVYLPNKQRTVVTVRDGMSVYDSLDKALKVRGLNQDCCVVYRLIKGRKTVTAWDTAIDPLDGEELIVE | -0.08 ± 0.11
VKVYLPNKQRTVVTVRDGMSVYDSLDKALKVRGLNQDCCVVYRLIKGRKTVTAWDTAIGPLDGEELIVE | 0.017 ± 0.049
VKVYLPNKQRTVVTVRDGMSVYDSLDKALKVRGLNQDCCVVYRLIKGRKTVTAWDTAIQPLDGEELIVE | -0.008 ± 0.086
VKVYLPNKQRTVVTVRDGMSVYDSLDKALKVRGLNQDCCVVYRLIKGRKTVTAWDTAISPLDGEELIVE | 0.002 ± 0.027
VKVYLPNKQRTVVTVRDGMSVYDSLDKALKVRGLNQDCCVVYRLIKGRKTVTAWDTAILPLDGEELIVE | -0.071 ± 0.049
VKVYLPNKQRTVVTVRDGMSVYDSLDKALKVRGLNQDCCVVYRLIKGRKTVTAWDTAINPLDGEELIVE | -0.366 ± 0.21
VKVYLPNKQRTVVTVRDGMSVYDSLDKALKVRGLNQDCCVVYRLIKGRKTVTAWDTAIFPLDGEELIVE | -0.015 ± 0.12
VKVYLPNKQRTVVTVRDGMSVYDSLDKALKVRGLNQDCCVVYRLIKGRKTVTAWDTAIIPLDGEELIVE | 0.131 ± 0.1
VKVYLPNKQRTVVTVRDGMSVYDSLDKALKVRGLNQDCCVVYRLIKGRKTVTAWDTAIMPLDGEELIVE | 0.078 ± 0.06
VKVYLPNKQRTVVTVRDGMSVYDSLDKALKVRGLNQDCCVVYRLIKGRKTVTAWDTAIVPLDGEELIVE | -0.122 ± 0.041
VKVYLPNKQRTVVTVRDGMSVYDSLDKALKVRGLNQDCCVVYRLIKGRKTVTAWDTAIRPLDGEELIVE | -0.007 ± 0.043
VKVYLPNKQRTVVTVRDGMSVYDSLDKALKVRGLNQDCCVVYRLIKGRKTVTAWDTAIYPLDGEELIVE | 0.01 ± 0.44
VKVYLPNKQRTVVTVRDGMSVYDSLDKALKVRGLNQDCCVVYRLIKGRKTVTAWDTAIEPLDGEELIVE | -0.068 ± 0.067
VKVYLPNKQRTVVTVRDGMSVYDSLDKALKVRGLNQDCCVVYRLIKGRKTVTAWDTAITPLDGEELIVE | 0.054 ± 0.058
VKVYLPNKQRTVVTVRDGMSVYDSLDKALKVRGLNQDCCVVYRLIKGRKTVTAWDTAIADLDGEELIVE | 0.138 ± 0.12
VKVYLPNKQRTVVTVRDGMSVYDSLDKALKVRGLNQDCCVVYRLIKGRKTVTAWDTAIAVLDGEELIVE | -0.04 ± 0.051

Variant | abundance fitness
VKVYLPNKQRTVVTVRDGMSVYDSLDKALKVRGLNQDCCVVYRLIKGRKTVTAWDTAIATLDGEELIVE | 0.027 ± 0.078
VKVYLPNKQRTVVTVRDGMSVYDSLDKALKVRGLNQDCCVVYRLIKGRKTVTAWDTAIAQLDGEELIVE | 0.121 ± 0.066
VKVYLPNKQRTVVTVRDGMSVYDSLDKALKVRGLNQDCCVVYRLIKGRKTVTAWDTAIAHLDGEELIVE | -0.06 ± 0.18
VKVYLPNKQRTVVTVRDGMSVYDSLDKALKVRGLNQDCCVVYRLIKGRKTVTAWDTAIAFLDGEELIVE | -0.036 ± 0.13
VKVYLPNKQRTVVTVRDGMSVYDSLDKALKVRGLNQDCCVVYRLIKGRKTVTAWDTAIACLDGEELIVE | -0.221 ± 0.2
VKVYLPNKQRTVVTVRDGMSVYDSLDKALKVRGLNQDCCVVYRLIKGRKTVTAWDTAIAKLDGEELIVE | 0.024 ± 0.057
VKVYLPNKQRTVVTVRDGMSVYDSLDKALKVRGLNQDCCVVYRLIKGRKTVTAWDTAIAMLDGEELIVE | 0.084 ± 0.068
VKVYLPNKQRTVVTVRDGMSVYDSLDKALKVRGLNQDCCVVYRLIKGRKTVTAWDTAIASLDGEELIVE | 0.098 ± 0.08
VKVYLPNKQRTVVTVRDGMSVYDSLDKALKVRGLNQDCCVVYRLIKGRKTVTAWDTAIAWLDGEELIVE | -0.199 ± 0.075
VKVYLPNKQRTVVTVRDGMSVYDSLDKALKVRGLNQDCCVVYRLIKGRKTVTAWDTAIARLDGEELIVE | -0.067 ± 0.048
VKVYLPNKQRTVVTVRDGMSVYDSLDKALKVRGLNQDCCVVYRLIKGRKTVTAWDTAIAALDGEELIVE | 0.147 ± 0.066
VKVYLPNKQRTVVTVRDGMSVYDSLDKALKVRGLNQDCCVVYRLIKGRKTVTAWDTAIAELDGEELIVE | 0.064 ± 0.059
VKVYLPNKQRTVVTVRDGMSVYDSLDKALKVRGLNQDCCVVYRLIKGRKTVTAWDTAIAYLDGEELIVE | 0.043 ± 0.14
VKVYLPNKQRTVVTVRDGMSVYDSLDKALKVRGLNQDCCVVYRLIKGRKTVTAWDTAIALLDGEELIVE | 0.001 ± 0.045
VKVYLPNKQRTVVTVRDGMSVYDSLDKALKVRGLNQDCCVVYRLIKGRKTVTAWSTAIAPLDGEELIVE | -0.168 ± 0.036
VKVYLPNKQRTVVTVRDGMSVYDSLDKALKVRGLNQDCCVVYRLIKGRKTVTAWPTAIAPLDGEELIVE | -0.852 ± 0.099
VKVYLPNKQRTVVTVRDGMSVYDSLDKALKVRGLNQDCCVVYRLIKGRKTVTAWYTAIAPLDGEELIVE | -0.648 ± 0.15
VKVYLPNKQRTVVTVRDGMSVYDSLDKALKVRGLNQDCCVVYRLIKGRKTVTAWVTAIAPLDGEELIVE | -0.773 ± 0.062
VKVYLPNKQRTVVTVRDGMSVYDSLDKALKVRGLNQDCCVVYRLIKGRKTVTAWRTAIAPLDGEELIVE | -0.343 ± 0.025
